Experiments:
[1] = substrate: CC1(C)SC2[C@H](NC(=O)c3ccccc3)C(=O)N2C1C(=O)O; assay: (§1) Stability against beta-lactamase of Staphylococcus aureus
[2] = substrate: CC1(C)S[C@@H]2[C@H](NC(=O)Cc3ccccc3)C(=O)N2[C@H]1C(=O)O; assay: as §1
[3] = substrate: COc1cccc(OC)c1C(=O)N[C@@H]1C(=O)N2C1SC(C)(C)C2C(=O)O; assay: as §1

B1: Beta-lactamase (Staphylococcus aureus), P00807 (protein)
chain: MKKLIFLIVIALVLSACNSNSSHAKELNDLEKKYNAHIGVYALDTKSGKEVKFNSDKRFAYASTSKAINSAILLEQVPYNKLNKKVHINKDDIVAYSPILEKYVGKDITLKALIEASMTYSDNTANNKIIKEIGGIKKVKQRLKELGDKVTNPVRYEIELNYYSPKSKKDTSTPAAFGKTLNKLIANGKLSKENKKFLLDLMLNNKSGDTLIKDGVPKDYKVADKSGQAITYASRNDVAFVYPKGQSEPIVLVIFTNKDNKSDKPNDKLISETAKSVMKEF
[1]
  Km: 33 µM
[2]
  Km: 12 µM
[3]
  Km: 5000 µM

Reference: ChEMBL document CHEMBL1122575, “Dependence of beta-lactamase stability on substructures within beta-lactam antibiotics” (J Med Chem, 1984)
